Laboratory results as given in patent publication US20170369545A1.

Biological target: tyrosine kinase receptor MET on HeLa cells (UniProt P08581)
Sequence (P08581 25-1390 limits assumed): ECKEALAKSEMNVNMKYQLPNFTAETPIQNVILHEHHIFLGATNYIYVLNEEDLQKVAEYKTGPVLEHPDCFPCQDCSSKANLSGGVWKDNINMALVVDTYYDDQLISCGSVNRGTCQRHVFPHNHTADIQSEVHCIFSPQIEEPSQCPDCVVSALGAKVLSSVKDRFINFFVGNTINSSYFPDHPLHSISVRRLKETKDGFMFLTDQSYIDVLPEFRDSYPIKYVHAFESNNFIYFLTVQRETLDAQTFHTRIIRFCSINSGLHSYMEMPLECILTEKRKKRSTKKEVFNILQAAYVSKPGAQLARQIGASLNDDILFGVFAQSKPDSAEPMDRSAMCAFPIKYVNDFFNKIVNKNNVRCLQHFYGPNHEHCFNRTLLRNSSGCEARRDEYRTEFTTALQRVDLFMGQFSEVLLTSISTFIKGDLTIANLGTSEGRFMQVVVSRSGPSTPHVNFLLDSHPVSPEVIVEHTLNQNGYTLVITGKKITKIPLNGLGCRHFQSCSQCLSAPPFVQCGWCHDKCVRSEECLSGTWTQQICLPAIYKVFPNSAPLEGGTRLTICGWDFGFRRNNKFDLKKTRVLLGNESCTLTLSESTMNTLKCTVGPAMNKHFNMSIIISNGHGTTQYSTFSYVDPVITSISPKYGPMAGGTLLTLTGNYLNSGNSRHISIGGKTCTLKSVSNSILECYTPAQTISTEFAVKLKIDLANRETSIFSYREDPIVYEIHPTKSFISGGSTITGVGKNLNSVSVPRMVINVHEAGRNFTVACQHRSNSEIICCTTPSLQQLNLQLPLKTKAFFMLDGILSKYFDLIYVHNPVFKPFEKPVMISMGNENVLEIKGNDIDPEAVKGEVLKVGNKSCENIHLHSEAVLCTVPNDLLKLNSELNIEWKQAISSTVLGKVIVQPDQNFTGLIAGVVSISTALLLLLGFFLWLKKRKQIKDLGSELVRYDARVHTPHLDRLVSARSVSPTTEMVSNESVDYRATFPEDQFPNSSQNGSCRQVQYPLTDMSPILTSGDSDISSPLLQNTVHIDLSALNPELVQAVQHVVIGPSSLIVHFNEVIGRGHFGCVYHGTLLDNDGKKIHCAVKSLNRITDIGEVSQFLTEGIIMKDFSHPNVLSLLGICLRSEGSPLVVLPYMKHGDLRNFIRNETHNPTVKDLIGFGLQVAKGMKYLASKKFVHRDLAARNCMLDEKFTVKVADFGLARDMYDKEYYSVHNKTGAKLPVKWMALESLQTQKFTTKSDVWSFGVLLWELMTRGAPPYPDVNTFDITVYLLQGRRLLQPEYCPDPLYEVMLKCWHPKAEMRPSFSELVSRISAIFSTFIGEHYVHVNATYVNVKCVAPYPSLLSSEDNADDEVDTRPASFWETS

- EC50 (read off the curve), Akt phosphorylation (P-AKT) [P-AKT]: 0.03 nM
- EC50 (read off the curve), ERK phosphorylation (P-ERK) [P-ERK]: 0.02 nM
Substance: Hepatocyte growth factor/scatter factor (HGF/SF) (from UniProt P14210 32-728) (ligand)
